According to publication doi:10.1101/2021.03.12.434960 (bioRxiv, 2021):

B3: full-length human KIF5C, C-terminal mScarlet-StrepII (natural protein)
chain: MADPAECSIKVMCRFRPLNEAEILRGDKFIPKFKGDETVVIGQGKPYVFDRVLPPNTTQEQVYNACAKQIVKDVLEGYNGTIFAYGQTSSGKTHTMEGKLHDPQLMGIIPRIAHDIFDHIYSMDENLEFHIKVSYFEIYLDKIRDLLDVSKTNLAVHEDKNRVPYVKGCTERFVSSPEEVMDVIDEGKANRHVAVTNMNEHSSRSHSIFLINIKQENVETEKKLSGKLYLVDLAGSEKVSKTGAEGAVLDEAKNINKSLSALGNVISALAEGTKTHVPYRDSKMTRILQDSLGGNCRTTIVICCSPSVFNEAETKSTLMFGQRAKTIKNTVSVNLELTAEEWKKKYEKEKEKNKTLKNVIQHLEMELNRWRNGEAVPEDEQISAKDQKNLEPCDNTPIIDNIAPVVAGISTEEKEKYDEEISSLYRQLDDKDDEINQQSQLAEKLKQQMLDQDELLASTRRDYEKIQEELTRLQIENEAAKDEVKEVLQALEELAVNYDQKSQEVEDKTRANEQLTDELAQKTTTLTTTQRELSQLQELSNHQKKRATEILNLLLKDLGEIGGIIGTNDVKTLADVNGVIEEEFTMARLYISKMKSEVKSLVNRSKQLESAQMDSNRKMNASERELAACQLLISQHEAKIKSLTDYMQNMEQKRRQLEESQDSLSEELAKLRAQEKMHEVSFQDKEKEHLTRLQDAEEMKKALEQQMESHREAHQKQLSRLRDEIEEKQKIIDEIRDLNQKLQLEQEKLSSDYNKLKIEDQEREMKLEKLLLLNDKREQAREDLKGLEETVSRELQTLHNLRKLFVQDLTTRVKKSVELDNDDGGGSAAQKQKISFLENNLEQLTKVHKQLVRDNADLRCELPKLEKRLRATAERVKALESALKEAKENAMRDRKRYQQEVDRIKEAVRAKNMARRAHSAQIAKPIRPGHYPASSPTAVHAIRGGGGSSSNSTHYQK

How the values were obtained:
[1] = biological target: T1, full-length human KIF5B, C-terminal mScarlet-StrepII (human, UniProt P33176 1-963)
T1 sequence: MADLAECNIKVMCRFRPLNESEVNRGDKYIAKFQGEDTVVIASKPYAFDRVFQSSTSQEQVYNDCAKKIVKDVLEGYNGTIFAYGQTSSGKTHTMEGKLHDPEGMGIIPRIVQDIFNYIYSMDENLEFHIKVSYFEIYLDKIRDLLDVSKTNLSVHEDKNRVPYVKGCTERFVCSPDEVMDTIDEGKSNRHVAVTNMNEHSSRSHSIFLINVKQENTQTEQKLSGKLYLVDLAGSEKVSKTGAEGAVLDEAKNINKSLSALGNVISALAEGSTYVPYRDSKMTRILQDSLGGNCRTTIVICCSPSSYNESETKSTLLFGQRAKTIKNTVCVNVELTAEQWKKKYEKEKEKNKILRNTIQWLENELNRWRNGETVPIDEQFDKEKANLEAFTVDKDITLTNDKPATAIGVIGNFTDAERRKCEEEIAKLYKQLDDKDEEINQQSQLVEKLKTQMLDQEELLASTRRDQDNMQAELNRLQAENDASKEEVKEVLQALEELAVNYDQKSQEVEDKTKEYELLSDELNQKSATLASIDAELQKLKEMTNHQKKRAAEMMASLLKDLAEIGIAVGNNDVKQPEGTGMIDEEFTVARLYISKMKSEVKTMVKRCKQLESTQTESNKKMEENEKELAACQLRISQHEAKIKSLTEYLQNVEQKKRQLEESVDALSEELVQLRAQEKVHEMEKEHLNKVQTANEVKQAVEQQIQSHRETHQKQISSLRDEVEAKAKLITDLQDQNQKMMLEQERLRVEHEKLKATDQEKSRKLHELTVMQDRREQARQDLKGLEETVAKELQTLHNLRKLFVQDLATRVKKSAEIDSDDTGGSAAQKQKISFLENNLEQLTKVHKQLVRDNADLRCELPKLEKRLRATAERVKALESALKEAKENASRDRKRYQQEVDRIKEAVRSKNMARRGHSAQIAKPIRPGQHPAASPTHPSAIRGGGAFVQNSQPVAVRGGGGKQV

[2] = biological target: B3
[3] = biological target: T2, full-length human KIF5A, C-terminal mScarlet-StrepII (human, UniProt Q12840 1-1032)
T2 sequence: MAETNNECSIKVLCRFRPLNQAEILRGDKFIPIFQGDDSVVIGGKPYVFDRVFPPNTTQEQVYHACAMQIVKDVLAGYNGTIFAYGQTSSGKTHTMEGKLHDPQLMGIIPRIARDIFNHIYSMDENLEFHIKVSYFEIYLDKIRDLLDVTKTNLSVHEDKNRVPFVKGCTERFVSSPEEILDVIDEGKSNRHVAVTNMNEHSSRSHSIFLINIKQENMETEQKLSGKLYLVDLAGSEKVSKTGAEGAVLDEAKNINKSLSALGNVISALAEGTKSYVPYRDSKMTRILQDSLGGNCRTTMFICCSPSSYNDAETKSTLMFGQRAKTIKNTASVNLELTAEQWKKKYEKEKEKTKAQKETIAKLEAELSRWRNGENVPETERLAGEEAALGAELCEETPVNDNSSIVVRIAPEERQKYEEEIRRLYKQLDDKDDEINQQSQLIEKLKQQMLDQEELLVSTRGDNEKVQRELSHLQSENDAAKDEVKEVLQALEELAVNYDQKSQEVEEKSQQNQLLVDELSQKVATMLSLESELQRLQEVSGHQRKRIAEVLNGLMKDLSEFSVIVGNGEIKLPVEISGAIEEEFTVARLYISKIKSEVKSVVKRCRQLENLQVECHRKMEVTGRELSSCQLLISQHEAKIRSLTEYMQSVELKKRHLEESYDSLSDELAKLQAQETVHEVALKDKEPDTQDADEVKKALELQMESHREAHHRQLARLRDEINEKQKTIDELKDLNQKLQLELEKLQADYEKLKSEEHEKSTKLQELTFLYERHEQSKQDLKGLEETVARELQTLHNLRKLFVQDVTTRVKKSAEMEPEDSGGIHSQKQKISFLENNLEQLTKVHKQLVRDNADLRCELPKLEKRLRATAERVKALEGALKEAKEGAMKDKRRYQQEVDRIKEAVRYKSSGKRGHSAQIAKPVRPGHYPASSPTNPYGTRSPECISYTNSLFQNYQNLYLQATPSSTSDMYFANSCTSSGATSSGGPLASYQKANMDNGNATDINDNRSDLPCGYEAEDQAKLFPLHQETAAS

[4] = biological target: T3, KIF5B-Δhinge (Δ505-610), C-terminal mScarlet-StrepII (human, UniProt P33176 1-963, Δ505-610); experiment: TIRF microscopy on surface-bound microtubules
T3 sequence: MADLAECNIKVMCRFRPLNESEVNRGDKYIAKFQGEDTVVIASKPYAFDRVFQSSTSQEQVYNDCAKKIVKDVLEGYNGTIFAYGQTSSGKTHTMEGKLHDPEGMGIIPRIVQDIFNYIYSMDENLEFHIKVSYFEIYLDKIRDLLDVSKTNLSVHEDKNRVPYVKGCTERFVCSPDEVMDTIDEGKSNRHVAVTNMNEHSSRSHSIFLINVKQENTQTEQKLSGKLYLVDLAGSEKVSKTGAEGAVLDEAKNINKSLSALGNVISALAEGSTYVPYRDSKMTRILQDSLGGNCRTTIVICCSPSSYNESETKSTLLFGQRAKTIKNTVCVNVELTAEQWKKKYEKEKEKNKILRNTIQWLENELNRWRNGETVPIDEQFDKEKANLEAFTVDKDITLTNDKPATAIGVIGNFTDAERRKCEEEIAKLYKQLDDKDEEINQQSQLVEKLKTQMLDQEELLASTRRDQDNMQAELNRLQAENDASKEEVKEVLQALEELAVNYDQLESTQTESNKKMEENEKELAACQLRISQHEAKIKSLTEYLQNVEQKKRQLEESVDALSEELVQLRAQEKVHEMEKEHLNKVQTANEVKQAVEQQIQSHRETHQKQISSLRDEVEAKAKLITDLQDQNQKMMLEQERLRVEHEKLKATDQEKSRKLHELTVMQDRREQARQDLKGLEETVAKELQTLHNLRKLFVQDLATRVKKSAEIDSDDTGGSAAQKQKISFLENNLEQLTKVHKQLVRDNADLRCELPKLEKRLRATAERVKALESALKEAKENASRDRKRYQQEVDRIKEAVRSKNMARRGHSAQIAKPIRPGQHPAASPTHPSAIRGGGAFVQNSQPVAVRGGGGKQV

SEC-MALS = biological target: the molecule itself; experiment: SEC-MALS

B1: human KLC1 with N-terminal 6xHis-FLAG (co-expressed with KIF5) (natural protein)
chain: MYDNMSTMVYIKEDKLEKLTQDEIISKTKQVIQGLEALKNEHNSILQSLLETLKCLKKDDESNLVEEKSNMIRKSLEMLELGLSEAQVMMALSNHLNAVESEKQKLRAQVRRLCQENQWLRDELANTQQKLQKSEQSVAQLEEEKKHLEFMNQLKKYDDDISPSEDKDTDSTKEPLDDLFPNDEDDPGQGIQQQHSSAAAAAQQGGYEIPARLRTLHNLVIQYASQGRYEVAVPLCKQALEDLEKTSGHDHPDVATMLNILALVYRDQNKYKDAANLLNDALAIREKTLGKDHPAVAATLNNLAVLYGKRGKYKEAEPLCKRALEIREKVLGKDHPDVAKQLNNLALLCQNQGKYEEVEYYYQRALEIYQTKLGPDDPNVAKTKNNLASCYLKQGKFKQAETLYKEILTRAHEREFGSVDDENKPIWMHAEEREECKGKQKDGTSFGEYGGWYKACKVDSPTVTTTLKNLGALYRRQGKFEAAETLEEAAMRSRKQGLDNVHKQRVAEVLNDPENMEKRRSRESLNVDVVKYESGPDGGEEVSMSVEWNGGVSGRASFCGKRQQQQWPGRRHR
[1]
  stoichiometry N: ~0.8 KLC1 per KHC
[2]
  stoichiometry N: ~0.8 KLC1 per KHC
[3]
  stoichiometry N: ~0.8 KLC1 per KHC

B2: KLC1-CC (aa 1-200), N-terminal 6xHis-2xStrepII-sfGFP (domain or fragment)
chain: MYDNMSTMVYIKEDKLEKLTQDEIISKTKQVIQGLEALKNEHNSILQSLLETLKCLKKDDESNLVEEKSNMIRKSLEMLELGLSEAQVMMALSNHLNAVESEKQKLRAQVRRLCQENQWLRDELANTQQKLQKSEQSVAQLEEEKKHLEFMNQLKKYDDDISPSEDKDTDSTKEPLDDLFPNDEDDPGQGIQQQHSSAAA
[4]
  binding result: binds

## B3
SEC-MALS
  stoichiometry N: 2
